This note sets out measurements from patent publication US20190169256A1.

Holding throughout (test): cell-based or functional assay
In test [1] the target is Salmon tac3 receptor (salmon).
For test [2], the target named is Tilapia tac3 receptor (tilapia).
In test [3] the target is Zebrafish tac3 receptor (zebrafish).

In test [1], Salmon NKB (slNKB) (peptide) had an EC50 of SRE-Luciferase activity (COS7 cells expressing slNKB receptor) of 1.03 nM.
In test [1], tilapia NKB (peptide) showed a luciferase activity (CRE-Luc, COS-7 cells transfected with salmon tac3r) of 1.8 fold. The luciferase activity (CRE-Luc reporter, COS-7 cells transfected with tilapia tac3 receptor) in test [2] worked out at 1.8 fold.
zebrafish NKB (peptide) returned a CRE-LUC (COS-7 cells transfected with zebrafish tac3 receptor) in test [3] above 3 fold.
